Target: T1, full-length human Gasdermin D (human, UniProt P57764 1-484)
T1 construct: Gasdermin D, human, UniProt P57764, 484 residues (53 kDa); His6-SUMO tag removed with Ulp1 protease and anion exchange; also called hGSDMD; GSDMD; source: E. coli BL21 (DE3) Gold, purified (HisTrap, Ulp1 cleavage, anion exchange, Superdex 75)
T1 sequence (looked up): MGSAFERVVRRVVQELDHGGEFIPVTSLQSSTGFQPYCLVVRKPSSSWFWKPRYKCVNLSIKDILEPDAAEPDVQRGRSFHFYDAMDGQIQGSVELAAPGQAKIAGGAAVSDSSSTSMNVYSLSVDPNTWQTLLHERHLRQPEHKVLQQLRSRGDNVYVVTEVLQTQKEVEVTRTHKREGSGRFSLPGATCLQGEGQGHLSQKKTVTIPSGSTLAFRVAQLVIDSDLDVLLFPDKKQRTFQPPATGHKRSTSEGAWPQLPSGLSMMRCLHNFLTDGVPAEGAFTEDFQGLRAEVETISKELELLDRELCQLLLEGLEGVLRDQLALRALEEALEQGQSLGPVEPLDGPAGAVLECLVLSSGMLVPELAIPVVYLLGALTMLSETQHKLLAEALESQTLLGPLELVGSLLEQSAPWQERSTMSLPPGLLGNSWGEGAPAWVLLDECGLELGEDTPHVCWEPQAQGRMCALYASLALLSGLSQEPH
Test: native gel or EMSA; native-PAGE, 12% polyacrylamide, 150 V, 25 mM Tris-HCl, 192 mM glycine, pH 8.3; Caspase-1 alone (40 uM), GSDMD alone (40 uM), GSDMD/Caspase-1 at 1:1 and 2:1 equivalents, with and without 20 mM NaTDB
Settings: both partners purified

binding result: binds
B1: human Caspase-1 (C285A) p20/p10 dimer (complex)
chain 1: NPAMPTSSGSEGNVKLCSLEEAQRIWKQKSAEIYPIMDKSSRTRLALIICNEEFDSIPRRTGAEVDITGMTMLLQNLGYSVDVKKNLTASDMTTELEAFAHRPEHKTSDSTFLVFMSHGIREGICGKKHSEQVPDILQLNAIFNMLNTKNCPSLKDKPKVIIIQAARGDSPGVVWFKD
chain 2: AIKKAHIEKDFIAFCSSTPDNVSWRHPTMGSVFIGRLIEHMQEYACSCDVEEIFRKVRFSFEQPDGRAQMPTTERVTLTRCFYLFPGH
notes: peptides 279-286 and 287-297 are assigned to it; Caspase-1 p10 subunit (p10 fragment), human; peptides 342-352, 375-383 and 384-391 are assigned to it; Polycistronic vector encoding an N-terminal His-tag; also called hCaspase-1 (C285A); protease C285A

Reference: article PMC10369405 (JACS Au, 2023)
